Experimental data from article PMC6298664.
pKd: −log10 of the molar value.

What was measured:
[1] = molecular target: Spermidine N-acetyltransferase (SpeG) from Escherichia coli (Escherichia coli str. K-12 substr. MG1655) (UniProt P0A951); test: SPR; SpeG (46 uM) amine-coupled to a carboxymethyl dextran chip; RcsB constructs as analytes; no spermidine; 4 C; 10 mM HEPES pH 8.3, 100 mM sodium chloride; Reichert SR7500DC; one-to-one model
[2] = molecular target: Spermidine N-acetyltransferase (SpeG) from Escherichia coli (Escherichia coli str. K-12 substr. MG1655) (UniProt P0A951); test: SPR; SpeG (46 uM) amine-coupled; the surface exposed to 0.5 mM spermidine before the RcsB constructs were injected as analytes; 4 C; 10 mM HEPES pH 8.3, 100 mM sodium chloride; Reichert4SR; one-to-one model

Chain of UniProt P0A951 (P0A951 whole entry): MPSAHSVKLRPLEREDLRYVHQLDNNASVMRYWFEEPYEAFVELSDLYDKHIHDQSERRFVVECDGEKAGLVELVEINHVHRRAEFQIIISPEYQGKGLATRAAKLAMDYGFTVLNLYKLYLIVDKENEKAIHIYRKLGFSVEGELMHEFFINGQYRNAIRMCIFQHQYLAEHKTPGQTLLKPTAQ

pKd [1]	pKd [2]	Substance
4.17	3.55	C-terminal DNA binding domain of RcsB (residues 128-216) (from UniProt P0DMC7 128-216) (domain or fragment)
–	3.89	full-length RcsB from Escherichia coli (from UniProt P0DMC7 1-216) (natural protein)
